Data taken from US20050214302A1, “Use of emmprin antagonists for the treatment of diseases associated with excessive angiogenesis” (priority 2004, published 2005).

Key:
HMVEC-L cells = assay: Recombinant EMMPRIN stimulation of MMP-1 production by HMVEC-L cells (MMP-1 activity kit); assay type: cell-based, human
Experimental: HMVEC-L cells were obtained from Clonetics, Walkersville, Md. (Cat# CC-2527, Lot# 8F1528). HMVEC-L cells were cultured under conditions recommended by the supplier. Briefly, cells were cultured in Endothelium Cell Growth Medium MV (EGM-2 MV, Clonetics, Cat#CC-3202) containing human epithelial growth factor (hEGF), hydrocortisone, human basic fibroblast growth factor (hFGF-B), vascular endothelial growth factor (VEGF), human insulin-like growth factor-1 (hIGF-1), ascorbic acid, gentamicin, 5% FBS, at 37° C., 5% CO2.
Early passage cells (less than passage 3) were trypsinized and washed with RPMI-1640 once. Cells were resuspended in Dilution Medium (DM−Fibroblast Basic Medium+2% FBS) at a concentration of 5×100,000 cells/ml. 100 μl of the cell suspension containing 50,000 cells was added into each well in a 96 well cell culture plate. […]
Quantitative detection of MMP-1 activity in the conditioned medium was carried out using Human MMP-1 Activity Kit (R&D Systems, Minneapolis, Minn.) (Cat#F1M00). […] MMP substrate added into each well was cleaved by active MMP-1 and the resulting fluorescence was determined using SpectraFluor Plus Plate Reader (TECAN, Zurich, Switzerland) (Cat# F129005, Ser# 94747) with the following parameters: excitation wavelength at 320 nm and emission wavelength at 405 nm.

NHLF cells = assay: Recombinant EMMPRIN stimulation of MMP-1 production by NHLF cells; assay type: cell-based, human; settings: same treatment (20 μg/ml EMMPRIN)
[1] = test system: angiogenesis in Matrigel plugs; assay: Matrigel plug angiogenesis assay in vivo; settings: suboptimal doses of FGF or VEGF, mice, expected
Description: The role of EMMPRIN in angiogenesis will be directly investigated in vivo using Matrigel plug assays. Matrigel is a solubilized basement membrane preparation extracted from the Engel-Holm-Swarm (EHS) mouse sarcoma, a tumor rich in extracellular matrix proteins. The major component is laminin, but Matrigel also contains trace amounts of fibroblast growth factor, TGF-beta, tissue plasminogen activator, and other growth factors that occur naturally in the EHS tumor. Matrigel is the basis for several types of tumor cell invasion assays and provides the necessary substrate for the study of angiogenesis. Matrigel forms a soft gel plug when injected subcutaneously into mice or rats and supports an intense vascular response when supplemented with angiogenic factors.
Matrigel plugs containing suboptimal doses of angiogenic growth factors, such as basic fibroblast growth factor (FGF), or vascular endothelial cell growth factor (VEGF) can be implanted into mice to induce angiogenesis in vivo. Some of these plugs are supplemented with various doses of recombinant EMMPRIN.

B1: recombinant EMMPRIN: recombinant protein corresponding to the extracellular domain of human EMMPRIN, produced in NSO cells (R&D Systems) (protein, UniProt P35613 138-323, looked up)
extracellular domain: EPGTVFTTVEDLGSKILLTCSLNDSATEVTGHRWLKGGVVLKEDALPGQKTEFKVDSDDQWGEYSCVFLPEPMGTANIQLHGPPRVKAVKSSEHINEGETAMLVCKSESVPPVTDWAWYKITDSEDKALMNGSESRFFVSSSQGRSELHIENLNMEADPGQYRCNGTSSKGSDQAIITLRVRSHLA
modifications: extracellular domain
For B1, the “Stimulation of MMP-1 production in endothelial cells (result in words)” value (HMVEC-L cells; 0.08-20 μg/ml EMMPRIN, 1 day and 3 days, FIG. 2) was “dose-dependently stimulated MMP-1 production”, the “MMP-1 produced by HMVEC-L cells” value (HMVEC-L cells; treated with 20 μg/ml EMMPRIN) was “approximately 40 ng/ml” and the “MMP-1 produced by NHLF cells relative to HMVEC-L” value (NHLF cells) was “only half of that amount”. The “Angiogenesis in Matrigel plugs supplemented with recombinant EMMPRIN” value [1] was “increase in angiogenesis”.
